T1: FcγRIIa R (human, UniProt P12318 34-217)
T1 construct: extracellular domain; also called FcgRIIa R type; 2aR
T1 sequence (looked up): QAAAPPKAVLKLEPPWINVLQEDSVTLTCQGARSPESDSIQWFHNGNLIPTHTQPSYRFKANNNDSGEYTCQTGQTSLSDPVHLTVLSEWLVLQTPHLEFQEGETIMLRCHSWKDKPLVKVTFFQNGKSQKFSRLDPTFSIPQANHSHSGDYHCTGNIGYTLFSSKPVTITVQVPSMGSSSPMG

T2: FcγRIIb (human, UniProt P31994 43-217)
T2 construct: extracellular domain; also called FcgRIIb; 2b
T2 sequence (looked up): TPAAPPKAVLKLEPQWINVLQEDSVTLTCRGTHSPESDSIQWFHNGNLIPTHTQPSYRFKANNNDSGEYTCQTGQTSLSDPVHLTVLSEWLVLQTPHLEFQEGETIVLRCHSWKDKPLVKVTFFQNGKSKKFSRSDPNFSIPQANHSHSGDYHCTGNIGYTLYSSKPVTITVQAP

B1: GpH7-A5/GpH7-B3 variant Y296_11K/GpL16-k0 (antibody, human IgG1, kappa)
heavy 1: not shown
heavy 2: not shown
light: DIVMTQSPLSLPVTPGEPASISCQASESLVHSNRNTYLHWYLQKPGQSPQLLIYKVSNRFSGVPDRFSGSGSGTDFTLKISRVEAEDVGVYYCSQNTHVPPTFGQGTKVEIERTVAAPSVFIFPPSDEQLKSGTASVVCLLNNFYPREAKVQWKVDNALQSGNSQESVTEQDSKDSTYSLSSTLTLSKADYEKHKVYACEVTHQGLSSPVTKSFNRGEC
notes: heterodimerized antibody, mutation in the GpH7-B3 chain only; also called He Ab
B2: GpH7-A5/GpH7-B3 variant P271_04F/GpL16-k0 (antibody, human IgG1, kappa)
heavy 1: not shown
heavy 2: not shown
light: B1 light
notes: as for B1
B3: GpH7-A5/GpH7-B3 variant V266_16H/GpL16-k0 (antibody, human IgG1, kappa)
heavy 1: not shown
heavy 2: not shown
light: B1 light
notes: as for B1
B4: GpH7-A5/GpH7-B3 variant H268_11K/GpL16-k0 (antibody, human IgG1, kappa)
heavy 1: not shown
heavy 2: not shown
light: B1 light
notes: as for B1
B5: GpH7-A5/GpH7-B3 variant S298_05P/GpL16-k0 (antibody, human IgG1, kappa)
heavy 1: not shown
heavy 2: not shown
light: B1 light
notes: as for B1
B6: GpH7-A5/GpH7-B3 variant S298_01G/GpL16-k0 (antibody, human IgG1, kappa)
heavy 1: not shown
heavy 2: not shown
light: B1 light
notes: as for B1
B7: GpH7-A5/GpH7-B3 variant Y296_12R/GpL16-k0 (antibody, human IgG1, kappa)
heavy 1: not shown
heavy 2: not shown
light: B1 light
notes: as for B1
B8: GpH7-A5/GpH7-B3 variant Q295_12R/GpL16-k0 (antibody, human IgG1, kappa)
heavy 1: not shown
heavy 2: not shown
light: B1 light
notes: as for B1
B9: GpH7-A5/GpH7-B3 variant Q295_04F/GpL16-k0 (antibody, human IgG1, kappa)
heavy 1: not shown
heavy 2: not shown
light: B1 light
notes: as for B1
B10: GpH7-A5/GpH7-B3 variant Q295_13S/GpL16-k0 (antibody, human IgG1, kappa)
heavy 1: not shown
heavy 2: not shown
light: B1 light
notes: as for B1
B11: GpH7-A5/GpH7-B3 variant S298_02A/GpL16-k0 (antibody, human IgG1, kappa)
heavy 1: not shown
heavy 2: not shown
light: B1 light
notes: as for B1
B12: GpH7-A5/GpH7-B3 variant S298_03V/GpL16-k0 (antibody, human IgG1, kappa)
heavy 1: not shown
heavy 2: not shown
light: B1 light
notes: as for B1
B13: GpH7-A5/GpH7-B3 variant Q295_18N/GpL16-k0 (antibody, human IgG1, kappa)
heavy 1: not shown
heavy 2: not shown
light: B1 light
notes: as for B1
B14: GpH7-A5/GpH7-B3 variant P271_20W/GpL16-k0 (antibody, human IgG1, kappa)
heavy 1: not shown
heavy 2: not shown
light: B1 light
notes: as for B1
B15: GpH7-A5/GpH7-B3 variant S298_07I/GpL16-k0 (antibody, human IgG1, kappa)
heavy 1: not shown
heavy 2: not shown
light: B1 light
notes: as for B1

For the first test, the target named is T1, FcγRIIa R. As to the kind of experiment: SPR (Biacore), antibody captured, FcγR as analyte; relative binding. The procedure: (§1) The heterodimerized antibodies He Abs in which one of the H chains was introduced with an alteration were assayed for their binding activities to each activating FcγR and inhibitory FcγR according to the method described in Example 4. […] The activating FcγRs in FIGS. 26, 27, 28, and 29 are FcγRIa, FcγRIIa (R), FcγRIIa (H), and FcγRIIIa, respectively.
(§2) Analysis of interaction between objective antibody and the FcγR was carried out using Biacore T100 (GE Healthcare). HBS-EP+ (GE Healthcare) was used as the running buffer, and the measurement temperature was set to 25° C. Chips produced by immobilizing the antigen peptide by the amine coupling method to a Series S Sencor Chip CM5 (GE Healthcare), or alternatively, chips produced by allowing preliminarily biotinylated antigen peptides to interact with and immobilize onto a Series S Sensor Chip SA (certified) (GE Healthcare) were used. Antibodies of interest were captured onto an antigen peptide-immobilized chip, and allowed to interact to each FcγR diluted with running buffer. To regenerate and repeatedly use the chip, the antibodies captured on the chip were washed off by reacting 10 mM glycine-HCl, pH 1.5.
For orientation: SPR reads the build-up and loss of mass on a sensor chip optically.
B1: the “He/Con_2aR (IIaR binding)” value was 94.3 % of GpH7-A5/GpH7-B3/GpL16-k0 (=100).

For the molecule B2, the “He/Con_2aR (IIaR binding)” value is 75.9 % of GpH7-A5/GpH7-B3/GpL16-k0 (=100).

As to B3, the “He/Con_2aR (IIaR binding)” value is 76.5 % of GpH7-A5/GpH7-B3/GpL16-k0 (=100).

Consider B4, for which the “He/Con_2aR (IIaR binding)” value was 100 % of GpH7-A5/GpH7-B3/GpL16-k0 (=100).

For B5, the “He/Con_2aR (IIaR binding)” value is 16 % of GpH7-A5/GpH7-B3/GpL16-k0 (=100).

As for B6, the “He/Con_2aR (IIaR binding)” value was 98.8 % of GpH7-A5/GpH7-B3/GpL16-k0 (=100).

Take B7: the “He/Con_2aR (IIaR binding)” value is 99.6 % of GpH7-A5/GpH7-B3/GpL16-k0 (=100).

As to B8, the “He/Con_2aR (IIaR binding)” value was 83 % of GpH7-A5/GpH7-B3/GpL16-k0 (=100).

In the case of B9, the “He/Con_2aR (IIaR binding)” value was 83.6 % of GpH7-A5/GpH7-B3/GpL16-k0 (=100).

Regarding B10, the “He/Con_2aR (IIaR binding)” value is 73.7 % of GpH7-A5/GpH7-B3/GpL16-k0 (=100).

As for B11, the “He/Con_2aR (IIaR binding)” value is 91.2 % of GpH7-A5/GpH7-B3/GpL16-k0 (=100).

As to B12, the “He/Con_2aR (IIaR binding)” value was 86.3 % of GpH7-A5/GpH7-B3/GpL16-k0 (=100).

Consider B13, for which the “He/Con_2aR (IIaR binding)” value was 82.4 % of GpH7-A5/GpH7-B3/GpL16-k0 (=100).

With B14, the “He/Con_2aR (IIaR binding)” value was 77.3 % of GpH7-A5/GpH7-B3/GpL16-k0 (=100).

As for B15, the “He/Con_2aR (IIaR binding)” value is 90.1 % of GpH7-A5/GpH7-B3/GpL16-k0 (=100).

A further test concerns the target T2, FcγRIIb. The test is described as above. As to the method: as §1, §2
B1: the “He/Con_2b (IIb binding)” value is 72.8 % of GpH7-A5/GpH7-B3/GpL16-k0 (=100).

B2: the “He/Con_2b (IIb binding)” value is 59.5 % of GpH7-A5/GpH7-B3/GpL16-k0 (=100).

Turning to B3, the “He/Con_2b (IIb binding)” value is 57.2 % of GpH7-A5/GpH7-B3/GpL16-k0 (=100).

Regarding B4, the “He/Con_2b (IIb binding)” value was 83 % of GpH7-A5/GpH7-B3/GpL16-k0 (=100).

Take B5: the “He/Con_2b (IIb binding)” value was 11.9 % of GpH7-A5/GpH7-B3/GpL16-k0 (=100).

B6: the “He/Con_2b (IIb binding)” value was 80.1 % of GpH7-A5/GpH7-B3/GpL16-k0 (=100).

Turning to B7, the “He/Con_2b (IIb binding)” value is 79.5 % of GpH7-A5/GpH7-B3/GpL16-k0 (=100).

With B8, the “He/Con_2b (IIb binding)” value was 65.2 % of GpH7-A5/GpH7-B3/GpL16-k0 (=100).

B9: the “He/Con_2b (IIb binding)” value is 64.7 % of GpH7-A5/GpH7-B3/GpL16-k0 (=100).

In the case of B10, the “He/Con_2b (IIb binding)” value was 56.9 % of GpH7-A5/GpH7-B3/GpL16-k0 (=100).

Consider B11, for which the “He/Con_2b (IIb binding)” value was 73.4 % of GpH7-A5/GpH7-B3/GpL16-k0 (=100).

For B12, the “He/Con_2b (IIb binding)” value is 64.5 % of GpH7-A5/GpH7-B3/GpL16-k0 (=100).

For B13, the “He/Con_2b (IIb binding)” value was 64.9 % of GpH7-A5/GpH7-B3/GpL16-k0 (=100).

Take B14: the “He/Con_2b (IIb binding)” value is 58.1 % of GpH7-A5/GpH7-B3/GpL16-k0 (=100).

Turning to B15, the “He/Con_2b (IIb binding)” value was 70.6 % of GpH7-A5/GpH7-B3/GpL16-k0 (=100).

A further test deals with T1, FcγRIIa R. As to the kind of experiment: SPR; He/Con_2aR divided by He/Con_2b (FcγRIIb as reference). As to the method:
as §1, §2
In the case of B1, the “IIaR/IIb (He_2aR/2b)” value came to 1.3 ratio.

As to B2, the “IIaR/IIb (He_2aR/2b)” value was 1.28 ratio.

For the molecule B3, the “IIaR/IIb (He_2aR/2b)” value amounted to 1.34 ratio.

With B4, the “IIaR/IIb (He_2aR/2b)” value came to 1.21 ratio.

Turning to B5, the “IIaR/IIb (He_2aR/2b)” value came to 1.34 ratio.

For the molecule B6, the “IIaR/IIb (He_2aR/2b)” value is 1.23 ratio.

On to B7, for which the “IIaR/IIb (He_2aR/2b)” value stood at 1.25 ratio.

For the molecule B8, the “IIaR/IIb (He_2aR/2b)” value amounted to 1.27 ratio.

As for B9, the “IIaR/IIb (He_2aR/2b)” value came to 1.29 ratio.

Turning to B10, the “IIaR/IIb (He_2aR/2b)” value turned out to be 1.3 ratio.

B11: the “IIaR/IIb (He_2aR/2b)” value was 1.24 ratio.

As to B12, the “IIaR/IIb (He_2aR/2b)” value was found to be 1.34 ratio.

On to B13, for which the “IIaR/IIb (He_2aR/2b)” value stood at 1.27 ratio.

B14: the “IIaR/IIb (He_2aR/2b)” value stood at 1.33 ratio.

B15: the “IIaR/IIb (He_2aR/2b)” value stood at 1.28 ratio.

The record behind these values is patent US20180155451A1 (published 2018).
